From patent US20040229289A1, “Antigen binding peptides (abtides) from peptide libraries” (Cytogen Corporation, priority 1994, published 2004)
Where a SMILES comes first, the peptide text is derived from it. Where no end group is shown, it is not given here. The star is where a group is joined. DTPA = O=C(O)CN(CCN(CC(=O)O)CC(=O)O)CCN(CC(=O)O)CC(=O)*

Experiments:
[1] = tested on: human prostate carcinoma LNCaP xenograft tumors; assay: in vivo; set-up: species or system SCID mice; details: mouse, iv
Procedure: Male SCID mice (C.B-17/Icr Tac—SCID mice) were purchased from Fox Chase (Philadelphia, Pa.) or. Taconic Farms (Germantown, N.Y.), were housed in sterilized cages with filter bonnets, and were given autoclaved laboratory rodent chow (Purina, St. Louis, Mo.), and filtered tap water ad libitum.
1×10^7 cells of the human prostate tumor line LNCaP (Horoszewicz et al., 1987, Anticancer Res. 7:927-936) were injected subcutaneously (s.c.) into the left rear flank of the mice. The cells were growing in exponential phase before harvesting and had been resuspended in 0.2 mL of sterile saline. Tumors were grown in the mice for 2-3 months before abtides were injected into the mice.
For biodistribution studies, abtides were modified at their amino termini with the chelator diethylene-triamine-pentaacetic acid anhydride (DTPA-A) (Sigma, St. Louis, Mo.). Approximately 2 mg of each abtide was initially dissolved in an appropriate volume of 0.1% acetic acid and then 1 mL of 0.1 M sodium bicarbonate, pH 8.0, was added. Two mg of DTPA-A was suspended in 100 AL of dimethylsulfoxide (DMSO), and 10 μL of the abtide solution added to this DTPA-A suspension. […]
In one experiment, abtide clone 14-DPTA-^111In (see Table 2) was injected intravenously (i.v.) into two groups of mice bearing measurable LNCaP xenografts. […] Thus, the total injected dose of radioactivity was about 120-140×10^6 cpm.
The first group of mice was sacrificed 2 hours after injection of the abtide and tissues were dissected for analysis. […] Dissected tissues were weighed and the amount of ^111In in them was determined by gamma counting. The cpm per gram of each tissue was calculated by dividing the cpm of ^111In found in the tissue by the weight in grams of the tissue. […]
In another experiment, abtide clone 17-DPTA-^111In (see Table 2) was injected intravenously into four SCID mice bearing measurable LNCaP xenografts. […] Thus, the total injected dose of radioactivity was about 100-110×10^6 cpm. […]

[2] = tested on: monoclonal antibody 7E11-C5; assay: ELISA: biotinylated monoclonal antibody 7E11-C5 binding to immobilized mimetope peptide 7E11-9.5; set-up: species or system murine; details: wells coated with 5 μg/mL mimetope; antibody serially diluted from 29 μg/mL; FIG. 2
Procedure: First the mimetope peptide 7 μl-9.5 was tested for its ability to bind to the monoclonal antibody 7E11-C5. Ninety-six well plates (Immunlon 4, Dynatech, Alexandria, Va.) were coated with 50 μL of a 5 μg/mL solution of the mimetope peptide 7 μl-9.5 and incubated overnight at room temperature. Following incubation, the wells were washed 4 times with 1% BSA in PBS. Biotinylated monoclonal antibody 7E11-C5 was serially diluted with PBS beginning with a concentration of 29 μg/mL and various amounts of the monoclonal antibody were added to the wells that had been coated with the mimetope peptide. After incubating for 1 hour at room temperature, the wells were washed four times with 1% BSA in PBS and 2 times with PBS. Then, 100 AL of a 1:2000 dilution of Extravidin-Alkaline Phosphatase (4,250 units/mL) (Sigma, St. Louis, Mo.) in PBS was added to each well. After an hour, the plate was again washed 4 times with PBS and 100 μL of a 1 mg/mL solution of the enzyme substrate p-nitrophenyl phosphate was added to each well. Color was allowed to develop for 15 minutes to 1 hour and absorbance was read at 405 nm.

[3] = tested on: biotinylated 7E11-9.5 mimetope peptide; assay: Dot blot: spotted 7E11-C5 abtides probed with biotinylated mimetope peptide; assay type: binding; details: 1 μL of 1 mg/mL abtide spotted on nitrocellulose; 0.1 mg/mL mimetope; FIG. 4
Procedure: In some cases, these abtides were used in a dot blot experiment. In those cases, 1 μL of a 1 mg/mL solution of the 38-residue abtides was spotted onto nitrocellulose (0.2 μm or 0.45 μm, Schleicher & Schuell, Keene, NH) strips or circles. After drying (about 1/2 hour), the nitrocellulose was blocked for 1 hour in a solution of 1% BSA in PBS. The nitrocellulose was then allowed to incubate in approximately 5 mL of a solution of 0.1 mg/mL of a biotinylated 7E11-9.5 mimetope peptide (biotin-LYANPGMYSRLHSPA). This mimetope peptide was one of those described in Section 6.1.1 above that were synthesized based upon the nine peptides that were identified in the screening of Section 6.1.1 above. After an hour, the nitrocellulose was washed approximately 5 times with a solution of 1% BSA in PBS. A 1:2000 dilution of Extravidin-Alkaline Phosphatase (4,250 units/mL) (Sigma, St. Louis, Mo.) in PBS was then added and allowed to incubate for 1 hour, after which the nitrocellulose was again washed extensively. Finally, a solution of 5-bromo-4-chloro-3-indolyl phosphate (0.15 mg/mL) and nitro blue tetrazolium (0.3 mg/mL) (Sigma, St Louis, Mo.) (BCIP/NBT) was added as an enzyme substrate. Color was allowed to develop […].
In FIG. 4, the 7E11-C5 abtides known as clone 14, clone 17, clone 15, clone 16, and clone 13 were tested for their ability to bind the biotinylated 7E11-9.5 mimetope peptide. Also tested, as a positive control, was the monoclonal antibody 7E11-C5. 7E11-C5 was spotted onto the region marked 351 in FIG. 4.

[4] = target: T1, native 7E11-C5 antigen in LNCaP lysates (Homo sapiens, UniProt Q04609); assay: Sandwich assay: capture of antigen from LNCaP cell lysate; assay type: binding; details: detection with biotinylated 7E11-C5, FIG. 6
T1 construct: endogenous in cells; host or cells: LNCaP cell lysate
Procedure: A sandwich assay using the LNCaP antigen was performed. The wells of a microtiter plate were coated with either monoclonal antibody 7E11-C5, the clone 14 7E11-C5 abtide, or, as a negative control, BSA. Coating and washing was as for-the assay described in Section 6.1.2.2. One hundred microliters of a lysate of LNCaP cells was added to the wells. The LNCaP lysate was prepared as described in PCT publication WO 94/18318, dated Aug. 18, 1994. Following capture of the lysate on the plate, 100 μL of a 5 μg/mL solution of biotinylated 7E11-CS monoclonal antibody was added to each well. Following incubation and washing as in Section 6.1.2.2, a 1:2000 dilution of Extravidin-Alkaline Phosphatase (4,250 units/mL) (Sigma, St. Louis, Mo.) in PBS was added to each well and incubated for 1 hour at room temperature. Following incubation, the wells were washed four times with 1% BSA in PBS and then twice in PBS. One hundred microliters of a 1 mg/mL solution of p-nitrophenyl phosphate in diethanol amine (DEA) buffer (both from Kirkegaard & Perry Laboratories, Gaithersburg, Md.) was then added and, after incubation at room temperature for 15-30 minutes, the absorbance of the solutions in the wells was read at 405 nm.
This was a surprising discovery and would not have been predicted by those skilled in the art. […]

PEM peptide [5] = target: T2, PEM peptide (human); assay: phage panning on PEM peptide, DC43 library, acid eluted
T2 peptide: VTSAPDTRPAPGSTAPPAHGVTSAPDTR
Procedure: (§1) A peptide comprising this sequence was synthesized and used to isolate abtides from TSAR peptide libraries by methods analogous to those described above. In these experiments, the specific TSAR libraries used were R26, D38 and DC43. See FIGS. 10-12 for description of these libraries. Phage bound to PEM were eluted by either standard acid elution methods, stringent acid elution methods where phage were incubated with the PEM peptide for only 10 minutes prior to washing and elution, or were eluted using excess PEM peptide. Phage from each library were isolated that express peptides capable of binding to PEM.

PEM peptide [6] = target: T2, PEM peptide; assay: phage panning on PEM peptide, D38 library, eluted with excess PEM peptide
Procedure: as §1

T1 sequence (Q04609 whole entry): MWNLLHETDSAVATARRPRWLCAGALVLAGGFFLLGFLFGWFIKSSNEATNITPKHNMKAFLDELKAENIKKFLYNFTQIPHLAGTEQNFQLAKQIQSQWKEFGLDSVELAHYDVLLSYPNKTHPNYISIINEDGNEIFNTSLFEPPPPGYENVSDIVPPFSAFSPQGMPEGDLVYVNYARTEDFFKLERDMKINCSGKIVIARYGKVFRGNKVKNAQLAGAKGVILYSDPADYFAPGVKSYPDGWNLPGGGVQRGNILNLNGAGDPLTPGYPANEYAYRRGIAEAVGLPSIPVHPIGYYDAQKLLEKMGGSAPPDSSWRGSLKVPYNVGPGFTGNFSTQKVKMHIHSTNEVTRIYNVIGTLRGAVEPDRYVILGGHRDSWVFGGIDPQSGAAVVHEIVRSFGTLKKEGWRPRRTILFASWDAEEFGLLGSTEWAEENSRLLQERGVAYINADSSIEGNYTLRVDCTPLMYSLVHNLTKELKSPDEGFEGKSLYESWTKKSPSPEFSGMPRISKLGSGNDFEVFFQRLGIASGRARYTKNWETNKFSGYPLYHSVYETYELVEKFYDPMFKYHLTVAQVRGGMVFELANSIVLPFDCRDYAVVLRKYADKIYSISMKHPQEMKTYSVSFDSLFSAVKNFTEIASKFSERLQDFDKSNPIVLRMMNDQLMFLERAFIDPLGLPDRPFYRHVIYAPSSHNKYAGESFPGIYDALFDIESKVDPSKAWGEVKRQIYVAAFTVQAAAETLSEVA

CC[C@H](C)[C@H](NC(=O)[C@H](Cc1ccccc1)NC(=O)[C@@H](NC(=O)[C@@H]1CCCN1C(=O)[C@@H](NC(=O)[C@H](Cc1ccccc1)NC(=O)CNC(=O)[C@@H]1CCCN1C(=O)[C@@H](NC(=O)[C@H](Cc1ccc(O)cc1)NC(=O)[C@H](C)NC(=O)[C@H](CC(N)=O)NC(=O)[C@H](Cc1ccc(O)cc1)NC(=O)[C@H](CC(C)C)NC(=O)[C@H](CC(C)C)NC(=O)[C@H](Cc1ccccc1)NC(=O)[C@H](CCCNC(=N)N)NC(=O)CNC(=O)[C@H](Cc1ccccc1)NC(=O)[C@H](CC(=O)O)NC(=O)[C@H](CC(C)C)NC(=O)[C@H](CC(N)=O)NC(=O)[C@H](CCCNC(=N)N)NC(=O)[C@H](CO)NC(=O)[C@H](CC(C)C)NC(=O)[C@H](CC(=O)O)NC(=O)CN(CCN(CCN(CC(=O)O)CC(=O)O)CC(=O)O)CC(=O)O)C(C)C)[C@@H](C)O)[C@@H](C)O)C(=O)N[C@@H](CO)C(=O)N[C@@H](CC(C)C)C(=O)N[C@H](C(=O)N[C@@H](C)C(=O)N[C@@H](CCC(=O)O)C(=O)N[C@@H](Cc1c[nH]cn1)C(=O)N[C@@H](CC(C)C)C(=O)N[C@@H](CO)C(=O)N[C@@H](CO)C(=O)N1CCC[C@H]1C(=O)N[C@@H](CCCCN)C(=O)NCC(N)=O)[C@@H](C)O [abtide clone 17-DPTA-^111In, metal not drawn] ({DTPA}-DLSRNLDFGRFLLYNAYVPGFTPTFISLTAEHLSSPKG-NH2)
localization to LNCaP xenograft tumors [1]: localized to LNCaP xenograft tumors

LYANPGMYSRLHSPA (not fully specified (N-terminus, C-terminus)) [7E11-9.5]
binding of monoclonal antibody 7E11-C5 to mimetope (absorbance at 405 nm) [2]: binds to the synthesized mimetope 7E11-9.5 in a concentration dependent manner

GIINANDPLPFWFMSPYTPGPAPIDINASRALVSNESG [clone 14]
binding of biotinylated 7E11-9.5 mimetope peptide in dot blot [3]: bound the mimetope
recognition (capture) of native 7E11-C5 antigen [4]: capable of recognizing the native 7E11-C5 antigen in LNCaP lysates

DLSRNLDFGRFLLYNAYVPGFTPTFISLTAEHLSSPKG [clone 17]
binding of biotinylated 7E11-9.5 mimetope peptide in dot blot [3]: bound the mimetope

CGRAYCLSGNYNIFGALFPGVSTPYADVGHDDAQSWRR [clone 15]
binding of biotinylated 7E11-9.5 mimetope peptide in dot blot [3]: bound the mimetope

GSFESARGVTCIGNHSIGAHGCGPLRSYASFNRGSGRRH (acid eluted) [V22]
binding result (PEM peptide [5]): binds

IDWNWLERGQHNRGYLHSFPDAKSQPTRGPRVAPNGND (eluted with excess PEM peptide) [MP-20]
binding result (PEM peptide [6]): binds

GRGSDMREHWPWSMPLILDQHANDPSPRAQSHYYSHPF (eluted with excess PEM peptide) [MP-30]
binding result (PEM peptide [6]): binds

LPRPFDDASWKLRAVKESPDGCGFGSPLLFPPYSGLPTFSSCD (acid eluted) [MA-21]
binding result (PEM peptide [5]): binds
